Results reported in article PMC10174515.

Substrate: O=C(O)C(=O)O
Experiment: purified protein
Details: pH 3.1, 37 °C, MBTH 0.11 mM, DMAB 1.6 mM, HRP 0.1 U/ml, potassium oxalate, concentrations up to 400 uM, substrate (product) inhibition data excluded

B1: barley oxalate oxidase (OxOx) (Hordeum vulgare) (protein)
chain: SDPDPLQDFCVADLDGKAVSVNGHTCKPMSEAGDDFLFSSKLTKAGNTSTPNGSAVTELDVAEWPGTNTLGVSMNRVDFAPGGTNPPHIHPRATEIGMVMKGELLVGILGSLDSGNKLYSRVVRAGETFVIPRGLMHFQFNVGKTEAYMVVSFNSQNPGIVFVPLTLFGSDPPIPTPVLTKALRVEAGVVELLKSKFAGGS
- Km: 256 µM
